Publication PMC4497506

How the values were obtained:
[1] = biological target: hexahistidine-tagged soluble four-domain CD4 (UniProt P01730); test: SPR
[2] = biological target: HIV-1 YU-2 gp120 S375A (HIV-1 YU-2); test: ITC
[3] = biological target: HIV-1 YU-2 gp120 F210A (HIV-1 YU-2); test: SPR
[4] = biological target: HIV-1 YU-2 gp120 T257A (HIV-1 YU-2); test: ITC
[5] = biological target: mAb F105
[6] = biological target: HIV-1 YU-2 gp120 I109A (HIV-1 YU-2); test: SPR
[7] = biological target: HIV-1 YU-2 gp120 M426A (HIV-1 YU-2); test: SPR
[8] = biological target: HIV-1 YU-2 gp120 W112A (HIV-1 YU-2); test: SPR
[9] = biological target: wild-type HIV-1 YU-2 Env gp120, soluble monomeric (HIV-1 YU-2) (UniProt P35961); test: SPR

HIV-1 YU-2 gp120 T257A (natural protein)
Kd [1]: 10.2 nM

HIV-1 YU-2 gp120 I109A (natural protein)
Kd [1]: 6.8 nM

HIV-1 YU-2 gp120 S375A (natural protein)
Kd [1]: 6.2 nM

peptide 1 (sequence-minimized peptide triazole Ile-Asn-Asn-Ile-X-Trp, X = ferrocenyl-triazolePro)
dH [2]: -9.1 kcal/mol | IC50 [3]: 200 nM

HIV-1 YU-2 gp120 M426A (natural protein)
Kd [1]: 59 nM

HIV-1 YU-2 gp120 S375H (natural protein)
Kd [1]: 5.2 nM

HIV-1 YU-2 gp120 T257R (natural protein)
Kd [1]: 21 nM

peptide 4 (peptide 1 with N-methylated indole at Trp 6)
dH [2]: -9.3 kcal/mol | stoichiometry N [2]: 1.13 | dH [4]: -11 kcal/mol | stoichiometry N [4]: 1.15

HIV-1 YU-2 gp120 S375W (natural protein)
Kd [1]: 3.7 nM

HIV-1 YU-2 gp120 W112A (natural protein)
Kd [5]: 83 nM | Kd [1]: 95 nM

peptide 2 (peptide 1 with Trp replaced by Tyr)
IC50 [3]: 4100 nM | IC50 [6]: 3.1 µM | IC50 [7]: 5.1 µM | IC50 [8]: > 50 µM | IC50 [9]: 3000 nM

HIV-1 YU-2 gp120 F210A (natural protein)
Kd [1]: 230 nM
